Experimental data as given in patent publication US20220259593A1, “CONTROL OF MAMMALIAN GENE DOSAGE USING CRISPR” (The Regents of the University of California, priority 2019, published 2022).
Changes are numbered by the printed parent chain.

B1: cr985 (nucleic acid)
guide: GTTTAAGAGCTAAGCTGGAAACAGCATAGCAAGTTTAAATAAGGCTAGTCCTTTATCAACTTGAAAAAGTGGCACCGAGTCGGTGCT
modifications: listed as DNA, chemistry not fully specified
B2: cr038 (nucleic acid)
guide: B1 guide with A5G, A6C, T52G
modifications: listed as DNA, chemistry not fully specified
B3: cr078 (nucleic acid)
guide: B1 guide with A5T, A6G, T52G
modifications: listed as DNA, chemistry not fully specified
B4: cr465 (nucleic acid)
guide: B1 guide with T34C, C45A, G48T, T52G
modifications: listed as DNA, chemistry not fully specified
B5: cr514 (nucleic acid)
guide: B1 guide with G33C, T52G, C73G, G85C
modifications: listed as DNA, chemistry not fully specified
B6: cr625 (nucleic acid)
guide: B1 guide with T34C, T52G, G77T, C81A
modifications: listed as DNA, chemistry not fully specified
B7: cr741 (nucleic acid)
guide: B1 guide with A28G, A42C, T49A, T52G
modifications: listed as DNA, chemistry not fully specified
B8: cr115 (nucleic acid)
guide: B1 guide with G43T, C51A, T52G, T62C, A67G
modifications: listed as DNA, chemistry not fully specified
B9: cr188 (nucleic acid)
guide: B1 guide with G43T, C51A, T52G, T61C, A68G
modifications: listed as DNA, chemistry not fully specified
B10: cr767 (nucleic acid)
guide: B1 guide with T34A, T52G, A78T
modifications: listed as DNA, chemistry not fully specified
B11: cr681 (nucleic acid)
guide: B1 guide with G48C, T52G, C57T
modifications: listed as DNA, chemistry not fully specified
B12: cr582 (nucleic acid)
guide: B1 guide with A42C, A47T, T52G, G63C
modifications: listed as DNA, chemistry not fully specified
B13: cr222 (nucleic acid)
guide: B1 guide with T34G, T52G, A59G, T70C
modifications: listed as DNA, chemistry not fully specified
B14: cr708 (nucleic acid)
guide: B1 guide with G43T, C51A, T52G
modifications: listed as DNA, chemistry not fully specified
B15: cr738 (nucleic acid)
guide: B1 guide with A32T, A41T, T52G
modifications: listed as DNA, chemistry not fully specified
B16: cr743 (nucleic acid)
guide: B1 guide with G33C, T52G, A74G, T84C
modifications: listed as DNA, chemistry not fully specified
B17: cr045 (nucleic acid)
guide: B1 guide with G1T, A6T, T52G
modifications: listed as DNA, chemistry not fully specified
B18: cr419 (nucleic acid)
guide: B1 guide with G33C, T52G, C73A, G85T
modifications: listed as DNA, chemistry not fully specified
B19: cr588 (nucleic acid)
guide: B1 guide with G33C, T52G, C73T, G85A
modifications: listed as DNA, chemistry not fully specified
B20: cr050 (nucleic acid)
guide: B1 guide with G1C, A6G, T52G
modifications: listed as DNA, chemistry not fully specified
B21: cr197 (nucleic acid)
guide: B1 guide with G43T, C51A, T52G, T62G, A67C
modifications: listed as DNA, chemistry not fully specified
B22: cr202 (nucleic acid)
guide: B1 guide with G33C, T52G, G72A, C86T
modifications: listed as DNA, chemistry not fully specified
B23: cr097 (nucleic acid)
guide: B1 guide with T2C, A6C, T52G
modifications: listed as DNA, chemistry not fully specified
B24: cr107 (nucleic acid)
guide: B1 guide with G43T, C51A, T52G, C75A, G83T
modifications: listed as DNA, chemistry not fully specified
B25: cr467 (nucleic acid)
guide: B1 guide with T34C, T52G, C60T, G69A
modifications: listed as DNA, chemistry not fully specified
B26: cr298 (nucleic acid)
guide: B1 guide with G79C
modifications: listed as DNA, chemistry not fully specified
B27: cr526 (nucleic acid)
guide: B1 guide with G43T, C51A, T52G, A74G, T84C
modifications: listed as DNA, chemistry not fully specified
B28: cr208 (nucleic acid)
guide: B1 guide with T54C, A66G
modifications: listed as DNA, chemistry not fully specified
B29: cr211 (nucleic acid)
guide: B1 guide with G44T, T52G
modifications: listed as DNA, chemistry not fully specified
B30: cr335 (nucleic acid)
guide: B1 guide with T52G, G72A, A74G, T84C, C86T
modifications: listed as DNA, chemistry not fully specified
B31: cr061 (nucleic acid)
guide: B1 guide with T4C, G7C, T52G
modifications: listed as DNA, chemistry not fully specified
B32: cr928 (nucleic acid)
guide: B1 guide with A31T, A41G, T52G, T54A
modifications: listed as DNA, chemistry not fully specified
B33: cr498 (nucleic acid)
guide: B1 guide with A39T, T52G
modifications: listed as DNA, chemistry not fully specified
B34: cr438 (nucleic acid)
guide: B1 guide with A31C, A42C, T52G, A55G
modifications: listed as DNA, chemistry not fully specified
B35: cr677 (nucleic acid)
guide: B1 guide with A41T, T52G
modifications: listed as DNA, chemistry not fully specified
B36: cr193 (nucleic acid)
guide: B1 guide with G43A, C51T, T52G, C60T, G69A, G72C, C86G
modifications: listed as DNA, chemistry not fully specified
B37: cr082 (nucleic acid)
guide: B1 guide with G1C, T2G, T52G
modifications: listed as DNA, chemistry not fully specified
B38: cr422 (nucleic acid)
guide: B1 guide with T52G, C73T, G83T, G85C
modifications: listed as DNA, chemistry not fully specified
B39: cr138 (nucleic acid)
guide: B1 guide with T34C, T52G, C76G, G82C
modifications: listed as DNA, chemistry not fully specified
B40: cr764 (nucleic acid)
guide: B1 guide with G33C, T52G
modifications: listed as DNA, chemistry not fully specified
B41: cr776 (nucleic acid)
guide: B1 guide with T52G, A59T, T62A, A67T, T70A
modifications: listed as DNA, chemistry not fully specified

System: K562 CRISPRi cells
Assay: Constant region variant library pooled growth screen, K562
Assay type: cell-based, human
Conditions: sgRNA constant region variants; activity relative to the original, un-modified constant region cr995
How it was run: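 Pooled library transduced into K562 CRISPRi cells in duplicate, puromycin-selected, grown at >2000× coverage and sampled after 4 to 8 days. Phenotypes per targeting sequence:constant region pair were normalized to the unmodified-scaffold pairing to give relative activity.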

Molecule | Mean relative activity
B1 | 0.07562
B2 | 0.07321
B3 | 0.03507
B4 | 0.04864
B5 | 0.05776
B6 | 0.04332
B7 | 0.06347
B8 | 0.05506
B9 | 0.04409
B10 | 0.0381
B11 | 0.03559
B12 | 0.07315
B13 | 0.03915
B14 | 0.0394
B15 | 0.03306
B16 | 0.03495
B17 | 0.04839
B18 | 0.05682
B19 | 0.07507
B20 | 0.04785
B21 | 0.06436

Molecule | Mean relative activity
B22 | 0.03423
B23 | 0.06585
B24 | 0.03837
B25 | 0.06565
B26 | 0.06335
B27 | 0.03359
B28 | 0.03711
B29 | 0.04075
B30 | 1.036
B31 | 0.05691
B32 | 0.05583
B33 | 0.03563
B34 | 0.06886
B35 | 0.04623
B36 | 0.06081
B37 | 0.0741
B38 | 0.0493
B39 | 0.04307
B40 | 0.04863
B41 | 1.037
